# “Also recorded” adds a separate entry of the source. Like-named read-outs stand apart in the source and are kept apart here.
# Tests used:
# Assay type in all cases: cell-based, human
# hESC line H7 [1] = experiment: Immunostaining and Western blotting of cardiac markers in 60 day-old differentiated cultures
# Protocol: (§1) Undifferentiated hESC line H7 from the WiCell Research Institute was maintained on matrigel-coated plates, as previously described^37. In the basic cardiac induction protocol (BP), undifferentiated hESCs were seeded on gelatin-coated plates at a density of 1-5×10^5 cells/cm^2 and cultured with mouse embryonic fibroblast conditioned medium for 3 days until fully confluent. To initiate cell differentiation, the medium was changed to RPMI1640, supplemented with B27 (Invitrogen). Cells were treated with 25 ng/ml BMP4 and 6 ng/ml bFGF at day 1, 100 ng/ml activin A at day 2, and 200 ng/ml DKK1 (R&D Systems) from day 6 to day 11. The medium was changed every 3 days after day 11 (FIG. 1). 250 ng/ml Noggin, 1 μM RA (Sigma) or 1 μM RAi were added to the cell culture at the times specified in FIGS. 1A-C. Spontaneous beating clusters were typically observed at days 10 to 11. Cardiac differentiation efficiency was analyzed on day 14 with CTNT antibody staining and flow cytometry.
# Sixty (60) day-old differentiated cultures were digested with 0.25% trypsin-EDTA, and the cells were plated on gelatin-coated coverslips for 5 days, allowing full attachment to occur. Cells were then fixed in 4% paraformaldehyde, and incubated with primary antibodies of mouse anti-human CTNT (R&D systems), mouse anti-human α-Actinin (Sigma), mouse anti-human β-MHC (ATCC), mouse anti-human MLC-2a (Synaptic Systems), or rabbit anti-human MLC-2v (ProteinTech Group). Goat anti-mouse secondary antibody conjugated with DyLight 488 (Santa Cruz Biotechnology) and goat anti-rabbit secondary antibody conjugated with Tritc (Santa Cruz Biotechnology) were used as needed. After the nuclei were counterstained with 4′,6-diamidino-2-phenylindole (DAPI, Sigma), immunofluorescence images were visualized and recorded using an Olympus microscope system X51 or Olympus LSCM FV1000.
# One well of a 24-well plate of 60 day-old differentiated cells was lysed with RIPA lysis buffer (Biomiga) for Western blotting. […]
# hESC line H7 [2] = experiment: Cardiac differentiation efficiency of hESCs, CTNT antibody staining and flow cytometry on day 14
# Protocol: as §1
# Differentiated cell clusters were dissociated into single cells with 0.25% trypsin-EDTA, which were then fixed and stained with anti-human CTNT antibody (R&D Systems) and goat anti-mouse FITC-conjugated secondary antibody (Santa Cruz) in PBS plus 0.5% BSA and 0.1% saponin (Sigma) at 4° C. Stained cells were kept in 4% paraformaldehyde for subsequent quantitative analysis. Data were collected using FACScalibur (Becton Dickinson) and analyzed with FlowJo software (Treestar).
# [3] = test system: hESC-derived cardiomyocytes; experiment: Effect of nifedipine on AP duration of hESC-derived cardiomyocytes (patch clamp); conditions: myocytes from Noggin+RA-treated cultures; FIG. 4B right
# Protocol: […] to 90 day-old differentiated cultures were washed in a low Ca^2+ solution, and then incubated in an enzyme solution for 20 min at 37° C. The dissociation was completed in KB solution by gently shaking for 40 min at room temperature. The isolated cells were resuspended in DMEM plus 10% FBS, and transferred on 0.1% gelatin-coated glass coverslips, and then kept in an incubator at 37° C., 5% CO2. The composition of the low Ca^2+ solution was (in mM):120 NaCl, 5.4 KCl, 5 MgSO4, 5 Na pyruvate, 20 glucose, 20 taurine, 10 HEPES. The pH was adjusted to 7.3 with NaOH. KB solution contained (in mM): 85 KCl, 30 K2HPO4, 5 MgSO4, 1 EGTA, 2 Na2ATP, 5 Na pyruvate, 20 glucose, 20 taurine, 5 creatine, adjusted to pH 7.3 with KOH.
# Action potentials of cardiomyocytes were recorded in a whole-cell patch clamp configuration, using an Axon 200B amplifier (Axon Instruments) at room temperature. Data were digitized at 20 kHz and filtered at 2 kHz, and were analyzed by PClamp 9.0. Patch pipettes (2-4MΩ resistance) were filled with an intracellular solution containing (in mM) 50 KCl, 60 K-Aspartate, 1 MgCl2, 3 Na2ATP, 10 EGTA, 10 mM HEPES, adjusted to pH 7.3 with KOH. Normal Tyrode's solution was used as an extracellular solution and contained (in mM) 140 NaCl, 5 KCl, 1 CaCl2, 1 MgCl2, 10 glucose, 10 HEPES, adjusted to pH 7.4 with NaOH.
# BMP signaling = experiment: Western blot for phosphorylated Smad1,5,8; conditions: data not shown
# Protocol: One well of a 24-well plate of 60 day-old differentiated cells was lysed with RIPA lysis buffer (Biomiga) for Western blotting. Blots were incubated with mouse anti-human CTNT, mouse anti-human β-MHC, rabbit anti-human MLC-2v, goat anti-ANF, mouse anti-human MLC-2a, mouse anti-human β-actin, rabbit anti-phospho smad1/5/8 and rabbit anti-smad1/5/8 separately, and then with HRP-conjugated goat anti-mouse or anti-rabbit antibody.
Molecule,"β-MHC expression (western blots) (hESC line H7 [1]; 60 day old RA and RAi treated cultures (with Noggin), FIG. 6)",effect on cardiac differentiation efficiency / cardiogenesis of hESCs (summary statement) (hESC line H7 [2]),"effect on cardiac differentiation (hESC line H7 [2]; RAi added between days 6 to 9, FIG. 1C)",effect on cardiac differentiation efficiency / cardiogenesis of hESCs (summary statement) (hESC line H7 [2]; listed as BMS-189453),effect on duration of atrial-like APs [3],"cTNT positive cells that are also MLC-2v positive (hESC line H7 [1]; 60 day old cultures, immunostaining, FIG. 5)","MLC-2v expression (Western blotting) (hESC line H7 [1]; 60 day-old cultures, FIG. 3C, FIG. 5)","activities of BMP signaling (phosphorylated Smad1,5,8) (BMP signaling)","effect on cardiac differentiation (hESC line H7 [2]; Noggin present between days 2 and 3, FIG. 1B)","effect on cardiac differentiation (hESC line H7 [2]; Noggin present between days 2.5 and 4.5, FIG. 1B)","effect on cardiac differentiation (hESC line H7 [2]; Noggin present between days 4 and 5, FIG. 1B)","differentiation efficiency (CTNT+ cells, flow cytometry) (hESC line H7 [2]; day 14 cultures, Noggin on days 4 and 5, RAi from days 6 to 8, mean±s.e.m, FIG. 1D)"
"CC1(C)CC=C(c2ccccc2)c2cc(/C=C/c3ccc(C(=O)O)cc3)ccc21 [RAi, BMS-189453, reference compound]",evenly expressed,significantly promote cardiogenesis,markedly increased,significantly increase,–,–,–,–,–,–,–,–
COC(=O)C1=C(C)NC(C)=C(C(=O)OC)C1c1ccccc1[N+](=O)[O-] [nifedipine],–,–,–,–,No significant effect,–,–,–,–,–,–,–
"Noggin: BMP antagonist protein, added at 250 ng/ml (protein, UniProt Q13253 28-232, looked up) Noggin: QHYLHIRPAPSDNLPLVDLIEHPDPIFDPKEKDLNETLLRSLLGGHYDPGFMATSPPEDRPGGGGGAAGGAEDLAELDQLLRQRPSGAMPSEIKGLEFSEGLAQGKKQRLSKKLRRKLQMWLWSQTFCPVLYAWNDLGSRFWPRYVKVGSCFSKRSCSVPEGMVCKPSKSVHLTVLRWRCQRRGGQRCGWIPIQYPIISECKCSC",–,significantly increase; also recorded: significantly promote cardiogenesis,–,–,–,about 35%,weak MLC-2v expression,reduced the activities of BMP signaling,slightly repressed,significantly promoted,Highest cardiac differentiation efficiencies,50%±3.06%
